Where a chain is given by its changes, count along the chain named.
B1: S8-ATX1H4 (antibody, V domains shown)
VH: QVQLVQSGTEVKYPGASVKVSCKASGYTFIDYGISWVRQAPGQGLEWMGWISAYNGNTDYAQKLQGRVTMTTDTSTSTAYMDLRSLRSDDTAVYYCAREGEGYCTYGVCPSFDYWGQGTLVTVSS
VL: EIVLTQSPGTLSLSPGERATLSCRASQSVSSSYLAWYQQKPGQAPRLLIYGASTRGTGIPDRFSGSGSGTDFTLTISRLEPEDFALYYCQQYGSSPYTFGQGTKLEIK
B2: S8-ATX2G9 (antibody, V domains shown)
VH: EVQLVESGGGVVRPGGSLRLSCAASGFTFDDYGMSWVRQAPGKGLEWVSGINWNGGSTGYADSVKGRFSISRDNAKNSLYLQMNSLRAEDTALYYCAREGITILRGVIIEDWYFDLWGRGTLVIVSS
VL: not shown
B3: S8-ATX2B11 (antibody, V domains shown)
VH: B2 VH with F29L, G56A, S57T, G59D, L79V, I103M, L104V, I124T
VL: not shown
B4: S8-ATX1E2 (antibody, V domains shown)
VH: EVQLVESGGGLVKPGESLRLSCAASGFTFSNAWMSWVRQAPGKGLEWVGRDGGARDYAAPVKGRFTISRDDSKNTLYLQMNTLKTEDTAVYYCTKGAFFFDYWGQGTLVTVSS
VL: EIVLTQSPGTLSLSPGERATLSCRASQSVISGYLAWYQQKPGQAPRLLIYGASRRATGITDRFSGSGSGTDFTLIISRLEPEDSAVYYCQQYDSSPRTFGQGTKVEIK
B5: S8-ATX1E1 (antibody, V domains shown)
VH: EVQLVESGGGLVQPGRSLRLSCAASGFMFDDYVMHWVRQAPGKGLEWVSGINWNSDNIGYADSVKGRFTISRDNAKNSLFLQMNSLRVEDTALYYCAKDIDAAAFDYWGQGTLVTVSS
VL: DIVMTQSPLSLPVTPGEPASISCRSSQSLLHSNGYSYLAWYLQKPGQSPQLLIYLVSNRASGVPDRFTGSGSGTDFTLKISRVEAEDVGVYYCMQALQTPWTFGQGTKVEIK
B6: S8-ATX2A3 (antibody, V domains shown)
VH: QVQLQESGPGLVKPSETLSLTCTVSGASISGYYWNWIRQPPGKGLEWIGYIHYSGTTNYNPSLKSRITISLDTSENQFSLRLSSVTAADTAVYYCARDWYTGYDWEGFDYWGQGTLVTVSS
VL: QSVLTQPPSVSGAPGQRVSFSCTGTSSNIGTGFDVHWYRQLPGTAPKVLIYNNNNRPSGVPDRFSASKSGTSASLAITGLQAEDEADYYCQSYDSSLSGSVFGGGTRLTVL
B7: S8-ATX1B6 (antibody, V domains shown)
VH: QVQLVESGGGVVLPGRSLRLSCAASGFTFNIYGMHWVRQAPGKGLEWVAVISYDGNNKEYADSVKGRFTISRDSSRNTLYLQMNSLRAEDTAVYYCAKRGYGSSSLEFWGQGTLVTVSS
VL: DIQMTQSPSSLSASVGDRVTITCRSSQDIRNDLGWYQQKPGKAPKRLIYASSNLQSGVPSRFSGSGSGTEFTLTISSLQPDDFATYYCLQHNTYPYTFGQGTKLEIK
B8: S8-ATX1B4 (antibody, V domains shown)
VH: B7 VH with L13Q, N30S, E59D, A61T, S74N, R76K, R87T
VL: B7 VL with S25A, S51T, N53S, G66R, T69A, I75V, D81E
B9: S8-ATX1E4 (antibody, V domains shown)
VH: QVQLVQSGSELKKPGASVKVSCKTSGYTFTSYAMNWVRQAPGQGLEWMGWINTNTGNPTYAQGFRGRFVFSLDTSVSTAYLQISSLKAEDTAVYYCARDKYSSSWYWFDSWGQGTLVTVSS
VL: DIQMTQSPSSLSASVGDRVTITCRPSQNISSYLNWYQQKPGKAPKLLIYAASSLRSGVPSRFSGSGSGTDFTLTVSSLQPEDFANYYCQQSYSTPYTFGRGTKLEIK
B10: S8-ATX2F10 (antibody, V domains shown)
VH: EVQLVESGGDLVKSGGSLRLSCAASGFTFSDAWMSWVRQAPGKGLEWVGRIQSKTDGGTTDYVAPVKGRFTISRDDSKDTLYLHMNSLTTEDTAVYYCTTDLYYYGSGSYFLGQGTLVTVSS
VL: DIQMTQSPSSLSASVGDRVTITCRASQNIITYLNWYQQKPGKAPKLLIYAASSLQSGVPSRFSGSGSGTDFTLTISSLQPEDFAIYHCQQSYNVPTTFGQGTKLEIK

Each binder was assayed against full-length human Siglec-8 (Siglec-8^FL) (human, UniProt Q9NYZ4 17-499) (assay: BLI).
Sequence of full-length human Siglec-8 (Siglec-8^FL) (Q9NYZ4 17-499): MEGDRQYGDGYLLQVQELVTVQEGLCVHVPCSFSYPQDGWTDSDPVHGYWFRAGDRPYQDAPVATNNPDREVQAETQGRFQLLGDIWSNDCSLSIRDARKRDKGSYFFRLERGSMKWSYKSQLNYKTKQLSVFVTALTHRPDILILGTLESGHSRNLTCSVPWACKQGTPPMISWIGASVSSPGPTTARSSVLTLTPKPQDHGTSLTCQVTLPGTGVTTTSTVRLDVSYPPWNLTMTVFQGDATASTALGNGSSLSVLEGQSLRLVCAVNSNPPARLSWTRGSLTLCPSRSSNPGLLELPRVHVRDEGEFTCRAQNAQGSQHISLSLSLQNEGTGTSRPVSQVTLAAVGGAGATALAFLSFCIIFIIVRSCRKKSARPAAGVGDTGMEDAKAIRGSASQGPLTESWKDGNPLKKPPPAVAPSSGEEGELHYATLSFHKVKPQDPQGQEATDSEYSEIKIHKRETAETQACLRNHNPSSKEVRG

Kd | Binder
< 0.001 nM | B1
0.00413 nM | B2
10 nM | B3
0.655 nM | B4
0.589 nM | B5
< 0.001 nM | B6
0.00219 nM | B7
0.502 nM | B8
0.917 nM | B9
100 nM | B10

Reference: patent US20250034245A1 (published 2025)
